Results reported in article PMC10350107, “Mechanism of DNA unwinding by hexameric MCM8–9 in complex with HROB” (Research Square, 2023).

B1: human MCM8–9 complex, wild type (FLAG-MCM8 with MBP-MCM9, co-expressed) (complex)
chain 1: MNGEYRGRGFGRGRFQSWKRGRGGGNFSGKWREREHRPDLSKTTGKRTSEQTPQFLLSTKTPQSMQSTLDRFIPYKGWKLYFSEVYSDSSPLIEKIQAFEKFFTRHIDLYDKDEIERKGSILVDFKELTEGGEVTNLIPDIATELRDAPEKTLACMGLAIHQVLTKDLERHAAELQAQEGLSNDGETMVNVPHIHARVYNYEPLTQLKNVRANYYGKYIALRGTVVRVSNIKPLCTKMAFLCAACGEIQSFPLPDGKYSLPTKCPVPVCRGRSFTALRSSPLTVTMDWQSIKIQELMSDDQREAGRIPRTIECELVHDLVDSCVPGDTVTITGIVKVSNAEEGSRNKNDKCMFLLYIEANSISNSKGQKTKSSEDGCKHGMLMEFSLKDLYAIQEIQAEENLFKLIVNSLCPVIFGHELVKAGLALALFGGSQKYADDKNRIPIRGDPHILVVGDPGLGKSQMLQAACNVAPRGVYVCGNTTTTSGLTVTLSKDSSSGDFALEAGALVLGDQGICGIDEFDKMGNQHQALLEAMEQQSISLAKAGVVCSLPARTSIIAAANPVGGHYNKAKTVSENLKMGSALLSRFDLVFILLDTPNEHHDHLLSEHVIAIRAGKQRTISSATVARMNSQDSNTSVLEVVSEKPLSERLKVVPGETIDPIPHQLLRKYIGYARQYVYPRLSTEAARVLQDFYLELRKQSQRLNSSPITTRQLESLIRLTEARARLELREEATKEDAEDIVEIMKYSMLGTYSDEFGNLDFERSQHGSGMSNRSTAKRFISALNNVAERTYNNIFQFHQLRQIAKELNIQVADFENFIGSLNDQGYLLKKGPKVYQLQTM
chain 2: not shown
notes: human MCM8; human MCM9; Written as the heterodimer (theoretical 266 kDa with tags; hexamer 798 kDa); in solution a mix of dimers, tetramers and hexamers; also called MCM8-MCM9; FLAG-MCM8-MBP-MCM9 heterodimer complex; source: Sf9 insect cells, co-expressed; hexamer-rich pool with a Superose 6 step) or captured from lysate on amylose resin and washed; not shown: FLAG, N-terminal, kept; MBP, …
B2: HROB-L405D (natural protein, human, UniProt Q8N3J3-4 1-646, looked up)
chain: MACSLQKLFAVEEEFEDEDFLSAVEDAENRFTGSLPVNAGRLRPVSSRPQETVQAQSSRLLLLHPTAPSEALGLPDLDLCLPASSTPSADSRPSCIGAAPLRPVSTSSSWIGNQRRVTVTEVLREPARPQSSALHPLLTFESQQQQVGGFEGPEQDEFDKVLASMELEEPGMELECGVSSEAIPILPAQQREGSVLAKKARVVDLSGSCQKGPVPAIHKAGIMSAQDESLDPVIQCRTPRPPLRPGAVGHLPVPTALTVPTQQLHWEVCPQRSPVQALQPLQAARGTIQSSPQNRFPCQPFQSPSSWLSGKAHLPRPRTPNSSCSTPSRTSSGLFPRIPLQPQAPVSSIGSPVGTPKGPQGALQTPIVTNHLVQLVTAASRTPQQPTHPSTRAKTRRFPGPAGIDPHQQSGRSLEDIMVSAPQTPTHGALAKFQTEIVASSQASVEEDFGRGPWLTMKSTLGLDERDPSCFLCTYSIVMVLRKAALKQLPRNKVPNMAVMIKSLTRSTMDASVVFKDPTGEMQGTVHRLLLETCQNELKPGSVLLLKQIGVFSPSLRNHYLNVTPNNLVHIYSPDSGDGSFLKPSQPFPKDSGSFQHDVAAKPEEGFRTAQNLEAEASPEEELPEADDLDGLLSELPEDFFCGTSS
notes: human HROB as in m1 (closest to isoform 4, lacks Q-484, T126P) with L405D in the disordered region that contacts MCM8

Key:
[1] = target: the molecule itself; assay: negative staining transmission electron microscopy; human MCM8–9 at 220 nM; ring-like particles, heterodimers to hexameric rings
[2] = target: B1; assay: pull-down; MBP-MCM9/FLAG-MCM8 from Sf9 lysate immobilised on amylose resin and washed (300 mM NaCl, 0.1% NP40); incubated with 1 μg purified HROB wild type or mutant in 50 mM Tris-HCl pH 7.5, 100 mM NaCl, 3 mM EDTA, BSA, 1 h at 4 °C; maltose elution, western blot; details: both partners purified

## B1
[1]
  binding result: binds

## B2
[2]
  binding result: binds
